This note sets out measurements from patent CN113912708A (INST MILITARY MEDICINE ACADEMY MILITARY SCIENCES PLA, dated 2022).

One may read the EC50 as the concentration needed to bring the measured effect to its halfway point. High values mean lower potency in that assay, low ones higher potency in that assay.

The target in one experiment is MERS-CoV RBD-Fc蛋白 (MERS-CoV (RBD); human (IgG Fc)).
The target in a further experiment is MERS-CoV假病毒 (MERS-CoV). Put plainly: cell-based or functional assay.

B1: 单域重链抗体Nano-Anti-MRBD (VHH)
VHH: QVQLVESGGGLVQPGGSLRLSCAASGFSFIDYAMSWARQAPGKGLEWVSSISPGYGTTYYTDSVKGRFTISRDNAKNMLYLQMNSLKPEDTATYYCAKGSDPFTPGIQRGQGTQVTVSS
B1 returned an EC50 with MERS-CoV RBD-Fc蛋白 of 0.744 ng/mL. For the same molecule, the “对MERS-CoV假病毒进入细胞的抑制率 (IC50, luciferase RLU, Huh-7细胞)” value with MERS-CoV假病毒 was determined as 10.7 ng/mL.
